Assay results from patent US20070185311A1 (EPIX MEDICAL INC A DELAWARE, published 2007).
One block for each molecule: values may come before it. Starred links: 1 amine or outer side, 2 acyl side, 3 side chain; linkers in the order of their positions; H or OH if unused. Positions of bridges follow the written chain, without caps; N, C: chain ends. Non-standard residues stand in square brackets, D forms with d. No end group written: not given here. 4‑methoxycoumarin = 4-Methoxycoumarin, an N-terminal optical probe label; Phe(4-OMe) = COc1ccc(C[C@H](N[*:1])C(=O)[*:2])cc1; Bip = N[C@@H](Cc1ccc(-c2ccccc2)cc1)C(=O)O; Tyr(3-I) = N[C@@H](Cc1ccc(O)c(I)c1)C(=O)O; Hyp = O=C(O)[C@@H]1C[C@@H](O)CN1; Cha = N[C@@H](CC1CCCCC1)C(=O)O; Ahx = NCCCCCC(=O)O; βAla = NCCC(=O)O

Columns and labels:
DD(E) fragment of fibrin [1] = assay: affinity of optical contrast agent to fibrin DD(E) fragment
DD(E) fragment of fibrin [2] = assay: affinity of fluorophore-labelled peptide; target taken as fibrin DD(E) fragment
DD(E) fragment of fibrin [3] = target: T1, DD(E) fragment of fibrin; assay: affinity of optical contrast agent to fibrin DD(E) fragment
T1 chain 1: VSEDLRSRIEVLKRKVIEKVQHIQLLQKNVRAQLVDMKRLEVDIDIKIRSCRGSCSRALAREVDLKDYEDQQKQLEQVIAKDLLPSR
T1 chain 2: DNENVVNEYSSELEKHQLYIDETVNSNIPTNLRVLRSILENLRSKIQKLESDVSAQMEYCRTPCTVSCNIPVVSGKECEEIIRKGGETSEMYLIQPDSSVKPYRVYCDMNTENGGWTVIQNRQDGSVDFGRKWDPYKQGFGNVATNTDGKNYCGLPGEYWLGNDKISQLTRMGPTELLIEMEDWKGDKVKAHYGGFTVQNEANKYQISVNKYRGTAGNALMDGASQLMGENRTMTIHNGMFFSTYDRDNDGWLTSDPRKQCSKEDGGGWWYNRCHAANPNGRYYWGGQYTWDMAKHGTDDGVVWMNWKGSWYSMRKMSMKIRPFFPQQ
T1 chain 3: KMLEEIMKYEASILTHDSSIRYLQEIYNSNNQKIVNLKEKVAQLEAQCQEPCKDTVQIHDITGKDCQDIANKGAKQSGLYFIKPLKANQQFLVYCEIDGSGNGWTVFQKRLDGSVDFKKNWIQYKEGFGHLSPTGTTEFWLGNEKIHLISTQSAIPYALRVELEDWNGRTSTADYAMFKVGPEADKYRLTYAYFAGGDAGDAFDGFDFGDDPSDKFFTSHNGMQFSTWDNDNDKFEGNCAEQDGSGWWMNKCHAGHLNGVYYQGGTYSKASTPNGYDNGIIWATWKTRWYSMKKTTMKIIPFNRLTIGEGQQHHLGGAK
T1 chain 4: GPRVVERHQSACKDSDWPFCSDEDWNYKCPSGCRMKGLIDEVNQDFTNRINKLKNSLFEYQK
T1 chain 5: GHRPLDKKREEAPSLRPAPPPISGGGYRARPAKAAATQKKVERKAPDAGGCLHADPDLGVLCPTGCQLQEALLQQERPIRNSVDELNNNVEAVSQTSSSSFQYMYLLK
T1 chain 6: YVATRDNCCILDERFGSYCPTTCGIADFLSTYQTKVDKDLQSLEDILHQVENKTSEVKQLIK

DD(E) fragment of fibrin [4] = target: T1, DD(E) fragment of fibrin; assay: affinity to DD(E) fragment of fibrin
DD(E) fragment of fibrin [5] = target: T1, DD(E) fragment of fibrin; assay: affinity to DD(E) fragment of fibrin
DD(E) fragment of fibrin [6] = assay: affinity to soluble fibrin DD(E) fragment
DD(E) fragment of fibrin [7] = assay: affinity of the unlabelled peptide; target taken as fibrin DD(E) fragment
fibrin = assay: Fibrin Affinity; method not stated

Molecule: tetramethylrhodamine-QWECPYGLCWIQ (cysteine pairing not given here) [Compound L: tetramethylrhodamine derivative of …]
- Kd (DD(E) fragment of fibrin [2]): 2000 nM

Molecule: fluorescein-[Ahx]FHC[Hyp][Tyr(3-I)]DLCHI (disulfide 4-9 (inferred)) [Structure B: Fluor-Ahx-F-H-C-Hyp-Y(3-I)-D-L-C-H-I]
- Kd (DD(E) fragment of fibrin [1]): 99 nM

Molecule: {4‑methoxycoumarin}-QWECPYGLCWIQ (cysteine pairing not given here) [Compound N: 4-methoxycoumarin derivative of …]
- Kd (DD(E) fragment of fibrin [2]): 200 nM

Molecule: [Phe(4-OMe)]WC[Hyp][Tyr(3-I)]DLCHI (disulfide 3-8 (inferred)) [F(4-OMe)-W-C-Hyp-Y(3-I)-D-L-C-H-I]
- Kd (DD(E) fragment of fibrin [4]): ≤ 500 nM

Molecule: fluorescein-[Ahx]WFHC[Hyp][Tyr(3-I)]DLCHI (disulfide 5-10 (inferred)) [Structure D: Fluor-Ahx-W-F-H-C-Hyp-Y(3-I)-D-L-C-H-I]
- Kd (DD(E) fragment of fibrin [3]): 61 nM

Molecule: [Cha]PCDYYGTC[Bip]D (cysteine pairing not given here) [Cha-P-C-D-Y-Y-G-T-C-Bip-D]
- Kd (DD(E) fragment of fibrin [5]): ≤ 10000 nM

Molecule: fluorescein-[βAla]FHC[Hyp][Tyr(3-I)]DLCHI (disulfide 4-9 (inferred)) [Structure A: Fluor-beta-A-F-H-C-Hyp-Y(3-I)-D-L-C-H-I]
- Kd (DD(E) fragment of fibrin [1]): 136 nM

Molecule: fluorescein-[Ahx]GGFHC[Hyp][Tyr(3-I)]DLCHI (disulfide 6-11 (inferred)) [Structure E: Fluor-Ahx-G-G-F-H-C-Hyp-Y(3-I)-D-L-C-H-I]
- Kd (DD(E) fragment of fibrin [3]): 90 nM

Molecule: fluorescein-[Ahx]GFHC[Hyp][Tyr(3-I)]DLCHI (disulfide 5-10 (inferred)) [Structure C: Fluor-Ahx-G-F-H-C-Hyp-Y(3-I)-D-L-C-H-I]
- Kd (DD(E) fragment of fibrin [3]): 97 nM

B1: Compound 32 (peptide)
peptide: LPCDYYGTCXD
modifications: not fully specified; Bip at 10; cyclized with thallium trifluoroacetate; C-terminus as -CO-NHCH2C6H4CH2NH2; Synthon #2 (bb(CO)DTPA chelates, Gd) coupled to the N- and C-terminal amines
- Kd (DD(E) fragment of fibrin [6]): 4700 nM

Molecule: LPCDYYGTCLD (not fully specified; cysteine pairing not given here) [L-P-C-D-Y-Y-G-T-C-L-D]
- Kd (DD(E) fragment of fibrin [5]): ≤ 10000 nM

More lines, now with the values ahead:

- Kd (DD(E) fragment of fibrin [1]): 55 nM
- Kd (DD(E) fragment of fibrin [2]): 60 nM
Molecule: Structure J: Fluor-Q-W-E-C-P-Y-G-L-C-W-I-Q (peptide)

- Kd (DD(E) fragment of fibrin [3]): 60 nM
Molecule: fluorescein-WFHCPYDLCHIL (disulfide 4-9 (inferred)) [Structure K: Fluor-W-F-H-C-P-Y-D-L-C-H-I-L]

- Kd (DD(E) fragment of fibrin [3]): 119 nM
Molecule: fluorescein-KWFHC[Hyp][Tyr(3-I)]DLCHI (disulfide 5-10 (inferred)) [Structure H: Fluor-K-W-F-H-C-Hyp-Y(3-I)-D-L-C-H-I]

- Kd (DD(E) fragment of fibrin [3]): 212 nM
Molecule: fluorescein-KFHC[Hyp][Tyr(3-I)]DLCHI (disulfide 4-9 (inferred)) [Structure F: Fluor-K-F-H-C-Hyp-Y(3-I)-D-L-C-H-I]

- Kd (DD(E) fragment of fibrin [7]): 3000 nM
- Ki (fibrin): 4700 nM
Molecule: QWECPYGLCWIQ […]
